From paper PMC9489475 (Nature structural & molecular biology, 2022)

Target: the molecule itself
Experiment: cryo-EM structure

B1: band 3 (native, full-length, from human erythrocyte membrane) (natural protein, human (endogenous in red blood cells), UniProt P02730 1-911, looked up)
chain: MEELQDDYEDMMEENLEQEEYEDPDIPESQMEEPAAHDTEATATDYHTTSHPGTHKVYVELQELVMDEKNQELRWMEAARWVQLEENLGENGAWGRPHLSHLTFWSLLELRRVFTKGTVLLDLQETSLAGVANQLLDRFIFEDQIRPQDREELLRALLLKHSHAGELEALGGVKPAVLTRSGDPSQPLLPQHSSLETQLFCEQGDGGTEGHSPSGILEKIPPDSEATLVLVGRADFLEQPVLGFVRLQEAAELEAVELPVPIRFLFVLLGPEAPHIDYTQLGRAAATLMSERVFRIDAYMAQSRGELLHSLEGFLDCSLVLPPTDAPSEQALLSLVPVQRELLRRRYQSSPAKPDSSFYKGLDLNGGPDDPLQQTGQLFGGLVRDIRRRYPYYLSDITDAFSPQVLAAVIFIYFAALSPAITFGGLLGEKTRNQMGVSELLISTAVQGILFALLGAQPLLVVGFSGPLLVFEEAFFSFCETNGLEYIVGRVWIGFWLILLVVLVVAFEGSFLVRFISRYTQEIFSFLISLIFIYETFSKLIKIFQDHPLQKTYNYNVLMVPKPQGPLPNTALLSLVLMAGTFFFAMMLRKFKNSSYFPGKLRRVIGDFGVPISILIMVLVDFFIQDTYTQKLSVPDGFKVSNSSARGWVIHPLGLRSEFPIWMMFASALPALLVFILIFLESQITTLIVSKPERKMVKGSGFHLDLLLVVGMGGVAALFGMPWLSATTVRSVTHANALTVMGKASTPGAAAQIQEVKEQRISGLLVAVLVGLSILMEPILSRIPLAVLFGIFLYMGVTSLSGIQLFDRILLLFKPPKYHPDVPYVKRVKTWRMHLFTGIQIICLAVLWVVKSTPASLALPFVLILTVPLRRVLLPLIFRNVELQCLDADDAKATFDEEEGRDEYDEVAMPV
modifications: N-glycan site N642 (N-acetylglucosamine modelled close to N642)
stoichiometry N: 2
